In publication PMC10641755, “Structural basis of aggregate binding by the AAA+ disaggregase ClpG” (The Journal of Biological Chemistry, 2023):

Columns and labels:
[1] = molecular target: Firefly Luciferase, heat-aggregated (Firefly) [luciferase: P08659]
[2] = molecular target: ClpG N1 core domain (N1∗), residues 1 to 46 (Pseudomonas aeruginosa, 15N (13C) isotope labelled for NMR); assay: NMR titration; unlabeled peptide 134 titrated to 15N-labeled N1∗ (80 μM N1∗, up to 240 μM peptide), 1H,15N-HSQC chemical shift perturbations, 298 K, 50 mM NaH2PO4 pH 6.5, 50 mM KCl, 2 mM DTT; conditions: both partners purified

Sequence of Firefly Luciferase, heat-aggregated (Firefly) [luciferase: P08659] (P08659 whole entry, the tested form may be a part): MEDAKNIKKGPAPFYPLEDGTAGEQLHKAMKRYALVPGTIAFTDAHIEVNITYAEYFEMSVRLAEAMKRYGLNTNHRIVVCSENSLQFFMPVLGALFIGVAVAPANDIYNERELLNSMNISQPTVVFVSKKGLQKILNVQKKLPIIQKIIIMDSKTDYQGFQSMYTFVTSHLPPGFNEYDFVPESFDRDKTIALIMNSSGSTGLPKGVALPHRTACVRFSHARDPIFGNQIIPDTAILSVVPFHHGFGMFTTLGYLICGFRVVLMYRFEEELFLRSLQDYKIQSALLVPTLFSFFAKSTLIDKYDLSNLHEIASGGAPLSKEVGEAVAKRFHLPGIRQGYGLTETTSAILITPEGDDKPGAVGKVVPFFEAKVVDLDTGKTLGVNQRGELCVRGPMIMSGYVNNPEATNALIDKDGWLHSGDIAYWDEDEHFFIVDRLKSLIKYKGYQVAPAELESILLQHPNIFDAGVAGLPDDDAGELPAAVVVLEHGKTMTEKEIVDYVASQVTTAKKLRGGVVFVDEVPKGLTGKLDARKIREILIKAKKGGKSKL

Row | Molecule | stimulation of ClpG ATPase activity by aggregated Luciferase [1] | Kd [2]
1 | ClpG WT (P. aeruginosa ClpGGI) (enzyme) | 1.4 fold | 
2 | CWFLRYLKASKVPLN (Unlabeled peptide) [Peptide 134] |  | > 50 µM
